Results on three molecules are retold here after article PMC5038921 (Journal of biomolecular screening, 2016).

For assay [1], the target named is T1, RMI core complex (RMI1 OB2 domain with RMI2) (Homo sapiens, UniProt Q96E14+Q9H9A7).
T1 sequence (Q9H9A7 473-625 limits assumed): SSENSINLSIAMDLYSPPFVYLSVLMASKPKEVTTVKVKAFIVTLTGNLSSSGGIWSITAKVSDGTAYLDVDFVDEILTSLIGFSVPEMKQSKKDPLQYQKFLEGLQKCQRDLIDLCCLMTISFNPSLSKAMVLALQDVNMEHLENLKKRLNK
T1 sequence (Q96E14 1-147): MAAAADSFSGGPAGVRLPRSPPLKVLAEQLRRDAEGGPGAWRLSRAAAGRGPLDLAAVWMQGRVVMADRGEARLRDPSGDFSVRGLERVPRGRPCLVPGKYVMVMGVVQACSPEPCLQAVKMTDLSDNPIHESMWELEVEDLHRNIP
Nature of the assay: ITC. Format: binding.

Assay [2] addresses RMI core complex (OB2 domain of RMI1 and the entirety of RMI2) (UniProt Q96E14). The experiment in a line: fluorescence polarisation. On the technique in general: Fluorescence polarisation rises when a labelled molecule tumbles more slowly, as on binding a larger partner.
Assay [3] has as its target RMI core complex with a N-terminal 6X-His tagged RMI2 (UniProt Q96E14). Nature of the assay: AlphaScreen or HTRF. A general note: Bead proximity is the source of the signal in Alpha formats.
The target of assay [4] is F-MM2 MM2 (Homo sapiens) (UniProt Q8IYD8). Nature of the assay: FP. To be noted: cited from earlier work.

As a reminder, the Kd is the concentration at which binding is half-saturated. As a reminder, the IC50 is the concentration needed to halve the response being measured. A high value points to lower potency.

Molecule `CCOC(=O)N1CCN(C(c2ccccn2)c2c(-c3ccccc3)n(O)c3ccccc23)CC1` (stereo not shown) [PIP-199] showed a Kd in assay [1] of 3400 ± 1000 nM.
As for MM2 peptide from FANCM (unlabeled), the half-inhibitory concentration (IC50) in assay [2] amounted to 510 nM; in assay [3], 180 nM.
Turning to “RMI core complex core complex (from UniProt Q9H9A7)”, in assay [4], the Kd is less than 5 nM.
